Test [1] concerns the target T1, FcγRIa extracellular domain with C-terminal His tag (human, UniProt P12314 16-292).
T1 construct: extracellular domain; Soluble receptor used as analyte in Biacore; also called FcgRI
The experiment in a line: SPR (Biacore), antibody captured, FcγR as analyte; binding relative to GpH7-A5/GpH7-B3/GpL16-k0 = 100.

For test [2], the target named is T2, FcγRIIb extracellular domain with C-terminal His tag (human, UniProt P31994 43-217).
T2 construct: extracellular domain; Soluble receptor used as analyte in Biacore; also called FcgRIIb
T2 sequence (looked up): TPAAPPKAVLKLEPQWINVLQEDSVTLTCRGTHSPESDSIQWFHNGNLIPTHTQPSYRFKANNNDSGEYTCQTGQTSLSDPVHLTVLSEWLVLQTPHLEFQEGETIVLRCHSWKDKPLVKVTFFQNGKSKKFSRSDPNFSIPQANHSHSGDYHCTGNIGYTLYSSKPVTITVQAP
The test is described as above.

In test [3] the target is T1, FcγRIa extracellular domain with …. The experiment in a line: ratio He/Con_1a : He/Con_2b (FcγRIa over FcγRIIb), SPR (Biacore).
Test [4] has as its target T3, FcγRIIb extracellular domain with C-terminal His tag (human, UniProt P31994 43-217).
T3 construct: extracellular domain; also called FcgRIIb; 2b; not shown: His tag attached to the C terminus
T3 sequence (looked up): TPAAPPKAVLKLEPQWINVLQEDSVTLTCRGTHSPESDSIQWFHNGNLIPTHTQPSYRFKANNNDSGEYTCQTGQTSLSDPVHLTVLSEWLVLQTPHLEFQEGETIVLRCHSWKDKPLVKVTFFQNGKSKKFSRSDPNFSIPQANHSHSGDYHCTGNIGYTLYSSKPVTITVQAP
Nature of the test: SPR (Biacore), antibody captured on antigen peptide chip, FcγR as analyte; relative binding. Here is the method:
(§1) The heterodimerized antibodies He Abs in which one of the H chains was introduced with an alteration were assayed for their binding activities to each activating FcγR and inhibitory FcγR according to the method described in Example 4. […] The activating FcγRs in FIGS. 26, 27, 28, and 29 are FcγRIa, FcγRIIa (R), FcγRIIa (H), and FcγRIIIa, respectively.
(§2) Analysis of interaction between objective antibody and the FcγR was carried out using Biacore T100 (GE Healthcare). HBS-EP+ (GE Healthcare) was used as the running buffer, and the measurement temperature was set to 25° C. Chips produced by immobilizing the antigen peptide by the amine coupling method to a Series S Sencor Chip CM5 (GE Healthcare), or alternatively, chips produced by allowing preliminarily biotinylated antigen peptides to interact with and immobilize onto a Series S Sensor Chip SA (certified) (GE Healthcare) were used. Antibodies of interest were captured onto an antigen peptide-immobilized chip, and allowed to interact to each FcγR diluted with running buffer. To regenerate and repeatedly use the chip, the antibodies captured on the chip were washed off by reacting 10 mM glycine-HCl, pH 1.5.

Test [5] concerns the target T4, FcγRIIIa extracellular domain with C-terminal His tag (human, UniProt P08637 17-208).
T4 construct: extracellular domain; also called FcgRIIIa; 3a; not shown: His tag attached to the C terminus
The description is as above. Here is the method: as §1, §2

T4 sequence (P08637 17-208): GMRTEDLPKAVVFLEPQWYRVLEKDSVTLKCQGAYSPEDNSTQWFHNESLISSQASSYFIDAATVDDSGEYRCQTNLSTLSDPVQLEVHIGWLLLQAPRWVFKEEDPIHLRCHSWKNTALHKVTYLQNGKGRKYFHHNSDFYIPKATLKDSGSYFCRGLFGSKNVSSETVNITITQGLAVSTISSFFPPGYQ
T1 sequence (P12314 16-292): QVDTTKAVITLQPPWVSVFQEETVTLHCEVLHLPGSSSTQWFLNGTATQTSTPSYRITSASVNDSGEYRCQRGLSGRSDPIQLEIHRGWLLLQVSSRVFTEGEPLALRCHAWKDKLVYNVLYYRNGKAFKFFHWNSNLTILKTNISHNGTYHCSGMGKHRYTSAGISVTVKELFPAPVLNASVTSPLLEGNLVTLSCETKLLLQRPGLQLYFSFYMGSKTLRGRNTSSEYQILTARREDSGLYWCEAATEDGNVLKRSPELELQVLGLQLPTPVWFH

B1: GpH7-A5/GpH7-B3 variant A327_09D/GpL16-k0 (antibody, human IgG1, kappa)
heavy 1: not shown
heavy 2: not shown
light: DIVMTQSPLSLPVTPGEPASISCQASESLVHSNRNTYLHWYLQKPGQSPQLLIYKVSNRFSGVPDRFSGSGSGTDFTLKISRVEAEDVGVYYCSQNTHVPPTFGQGTKVEIERTVAAPSVFIFPPSDEQLKSGTASVVCLLNNFYPREAKVQWKVDNALQSGNSQESVTEQDSKDSTYSLSSTLTLSKADYEKHKVYACEVTHQGLSSPVTKSFNRGEC
notes: Heterodimerized IgG1, mutation in the GpH7-B3 chain only; also called He Ab
In the case of B1, the He/Con_1a in test [1] came out at 103 control = 100. In addition, the He/Con_2b in test [2] stood at 172 control = 100. Further, the “He_1a/2b (Ia/IIb)” value in test [3] came to 0.6.

B2: GpH7-A5/GpH7-B3 variant P331_07I/GpL16-k0 (He Ab) (antibody, human IgG1, kappa)
heavy 1: not shown
heavy 2: not shown
light: DIVMTQSPLSLPVTPGEPASISCQASESLVHSNRNTYLHWYLQKPGQSPQLLIYKVSNRFSGVPDRFSGSGSGTDFTLKISRVEAEDVGVYYCSQNTHVPPTFGQGTKVEIERTVAAPSVFIFPPSDEQLKSGTASVVCLLNNFYPREAKVQWKVDNALQSGNSQESVTEQDSKDSTYSLSSTLTLSKADYEKHKVYACEVTHQGLSSPVTKSFNRGEC
notes: Heterodimerized antibody with the alteration in one H chain only
On to B2, for which the He/Con_2b in test [4] is 114 % of GpH7-A5/GpH7-B3/GpL16-k0 (=100). Besides, the He/Con_3a in test [5] was 66 % of GpH7-A5/GpH7-B3/GpL16-k0 (=100).

B3: GpH7-A5/GpH7-B3 variant L328_19Q/GpL16-k0 (He Ab) (antibody, human IgG1, kappa)
heavy 1: not shown
heavy 2: not shown
light: DIVMTQSPLSLPVTPGEPASISCQASESLVHSNRNTYLHWYLQKPGQSPQLLIYKVSNRFSGVPDRFSGSGSGTDFTLKISRVEAEDVGVYYCSQNTHVPPTFGQGTKVEIERTVAAPSVFIFPPSDEQLKSGTASVVCLLNNFYPREAKVQWKVDNALQSGNSQESVTEQDSKDSTYSLSSTLTLSKADYEKHKVYACEVTHQGLSSPVTKSFNRGEC
notes: as for B2
On to B3, for which the He/Con_2b in test [4] was 105 % of GpH7-A5/GpH7-B3/GpL16-k0 (=100). Moreover, the He/Con_3a in test [5] is 81.1 % of GpH7-A5/GpH7-B3/GpL16-k0 (=100).

B4: GpH7-A5/GpH7-B3 variant P331_11K/GpL16-k0 (He Ab) (antibody, human IgG1, kappa)
heavy 1: not shown
heavy 2: not shown
light: DIVMTQSPLSLPVTPGEPASISCQASESLVHSNRNTYLHWYLQKPGQSPQLLIYKVSNRFSGVPDRFSGSGSGTDFTLKISRVEAEDVGVYYCSQNTHVPPTFGQGTKVEIERTVAAPSVFIFPPSDEQLKSGTASVVCLLNNFYPREAKVQWKVDNALQSGNSQESVTEQDSKDSTYSLSSTLTLSKADYEKHKVYACEVTHQGLSSPVTKSFNRGEC
notes: as for B2
B4: the He/Con_2b in test [4] was 84.7 % of GpH7-A5/GpH7-B3/GpL16-k0 (=100). Further, the He/Con_3a in test [5] is 67.5 % of GpH7-A5/GpH7-B3/GpL16-k0 (=100).

B5: GpH7-A5/GpH7-B3 variant P331_20W/GpL16-k0 (He Ab) (antibody, human IgG1, kappa)
heavy 1: not shown
heavy 2: not shown
light: DIVMTQSPLSLPVTPGEPASISCQASESLVHSNRNTYLHWYLQKPGQSPQLLIYKVSNRFSGVPDRFSGSGSGTDFTLKISRVEAEDVGVYYCSQNTHVPPTFGQGTKVEIERTVAAPSVFIFPPSDEQLKSGTASVVCLLNNFYPREAKVQWKVDNALQSGNSQESVTEQDSKDSTYSLSSTLTLSKADYEKHKVYACEVTHQGLSSPVTKSFNRGEC
notes: as for B2
As to B5, the He/Con_2b in test [4] was 111 % of GpH7-A5/GpH7-B3/GpL16-k0 (=100). In test [5], the He/Con_3a was 78.6 % of GpH7-A5/GpH7-B3/GpL16-k0 (=100).

B6: GpH7-A5/GpH7-B3 variant P331_16H/GpL16-k0 (He Ab) (antibody, human IgG1, kappa)
heavy 1: not shown
heavy 2: not shown
light: DIVMTQSPLSLPVTPGEPASISCQASESLVHSNRNTYLHWYLQKPGQSPQLLIYKVSNRFSGVPDRFSGSGSGTDFTLKISRVEAEDVGVYYCSQNTHVPPTFGQGTKVEIERTVAAPSVFIFPPSDEQLKSGTASVVCLLNNFYPREAKVQWKVDNALQSGNSQESVTEQDSKDSTYSLSSTLTLSKADYEKHKVYACEVTHQGLSSPVTKSFNRGEC
notes: as for B2
Regarding B6, the He/Con_2b in test [4] is 116 % of GpH7-A5/GpH7-B3/GpL16-k0 (=100). The He/Con_3a in test [5] was 80.2 % of GpH7-A5/GpH7-B3/GpL16-k0 (=100).

B7: GpH7-A5/GpH7-B3 variant P331_18N/GpL16-k0 (He Ab) (antibody, human IgG1, kappa)
heavy 1: not shown
heavy 2: not shown
light: DIVMTQSPLSLPVTPGEPASISCQASESLVHSNRNTYLHWYLQKPGQSPQLLIYKVSNRFSGVPDRFSGSGSGTDFTLKISRVEAEDVGVYYCSQNTHVPPTFGQGTKVEIERTVAAPSVFIFPPSDEQLKSGTASVVCLLNNFYPREAKVQWKVDNALQSGNSQESVTEQDSKDSTYSLSSTLTLSKADYEKHKVYACEVTHQGLSSPVTKSFNRGEC
notes: as for B2
For the molecule B7, the He/Con_2b in test [4] was 99.2 % of GpH7-A5/GpH7-B3/GpL16-k0 (=100). For the same molecule, the He/Con_3a in test [5] was 73.4 % of GpH7-A5/GpH7-B3/GpL16-k0 (=100).

B8: GpH7-A5/GpH7-B3 variant L328_13S/GpL16-k0 (He Ab) (antibody, human IgG1, kappa)
heavy 1: not shown
heavy 2: not shown
light: DIVMTQSPLSLPVTPGEPASISCQASESLVHSNRNTYLHWYLQKPGQSPQLLIYKVSNRFSGVPDRFSGSGSGTDFTLKISRVEAEDVGVYYCSQNTHVPPTFGQGTKVEIERTVAAPSVFIFPPSDEQLKSGTASVVCLLNNFYPREAKVQWKVDNALQSGNSQESVTEQDSKDSTYSLSSTLTLSKADYEKHKVYACEVTHQGLSSPVTKSFNRGEC
notes: as for B2
Turning to B8, the He/Con_2b in test [4] was 149 % of GpH7-A5/GpH7-B3/GpL16-k0 (=100). Moreover, in test [5], the He/Con_3a is 71.7 % of GpH7-A5/GpH7-B3/GpL16-k0 (=100).
